Results published in article PMC11065870, “The complete assembly of human LAT1-4F2hc complex provides insights into its regulation, function and localisation” (Nature Communications, 2024).

T1: 4F2 cell-surface antigen heavy chain (4F2hc, SLC3A2), fully glycosylated (human, UniProt P08195-1 1-630, four highly branched, sialylated N-glycans at Asn365, Asn381, Asn424 and Asn506 (9 to 16 sialic acid residues); one phosphorylation site (residue not given))
T1 construct: 4F2 cell-surface antigen heavy chain (4F2hc, SLC3A2), human, full-length cDNA in pCAG; source: HEK293F, co-transfected with LAT1, purified (anti-Flag M2 resin, Ni-NTA, SEC) in digitonin
T1 sequence (looked up): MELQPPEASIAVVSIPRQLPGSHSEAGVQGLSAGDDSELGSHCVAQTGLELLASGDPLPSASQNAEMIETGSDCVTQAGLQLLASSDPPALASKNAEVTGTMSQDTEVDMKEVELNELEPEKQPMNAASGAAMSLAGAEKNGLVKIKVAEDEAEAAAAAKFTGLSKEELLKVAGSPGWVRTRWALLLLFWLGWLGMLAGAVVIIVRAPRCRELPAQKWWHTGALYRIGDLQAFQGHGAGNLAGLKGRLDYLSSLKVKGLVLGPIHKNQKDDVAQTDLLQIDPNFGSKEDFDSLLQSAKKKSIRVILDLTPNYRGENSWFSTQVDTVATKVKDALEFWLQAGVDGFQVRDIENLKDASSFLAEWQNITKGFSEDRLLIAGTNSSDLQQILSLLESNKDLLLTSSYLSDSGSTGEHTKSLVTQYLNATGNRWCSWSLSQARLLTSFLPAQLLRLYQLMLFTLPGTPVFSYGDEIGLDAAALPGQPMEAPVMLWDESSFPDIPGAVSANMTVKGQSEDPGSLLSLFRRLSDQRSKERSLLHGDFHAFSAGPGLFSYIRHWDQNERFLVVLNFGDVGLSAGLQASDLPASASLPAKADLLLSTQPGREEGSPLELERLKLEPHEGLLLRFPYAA

T2: 4F2hc, desialylated (neuraminidase-treated) (human, UniProt P08195-1 1-630, N-glycans at Asn365, Asn381, Asn424 and Asn506 without sialic acid (neuraminidase); fucosylation and branching retained)
T2 construct: 4F2 cell-surface antigen heavy chain (4F2hc, SLC3A2), human, full-length cDNA in pCAG; also called desialylated 4F2hc; source: HEK293F, co-transfected with LAT1, purified, then neuraminidase digestion
T2 sequence (looked up): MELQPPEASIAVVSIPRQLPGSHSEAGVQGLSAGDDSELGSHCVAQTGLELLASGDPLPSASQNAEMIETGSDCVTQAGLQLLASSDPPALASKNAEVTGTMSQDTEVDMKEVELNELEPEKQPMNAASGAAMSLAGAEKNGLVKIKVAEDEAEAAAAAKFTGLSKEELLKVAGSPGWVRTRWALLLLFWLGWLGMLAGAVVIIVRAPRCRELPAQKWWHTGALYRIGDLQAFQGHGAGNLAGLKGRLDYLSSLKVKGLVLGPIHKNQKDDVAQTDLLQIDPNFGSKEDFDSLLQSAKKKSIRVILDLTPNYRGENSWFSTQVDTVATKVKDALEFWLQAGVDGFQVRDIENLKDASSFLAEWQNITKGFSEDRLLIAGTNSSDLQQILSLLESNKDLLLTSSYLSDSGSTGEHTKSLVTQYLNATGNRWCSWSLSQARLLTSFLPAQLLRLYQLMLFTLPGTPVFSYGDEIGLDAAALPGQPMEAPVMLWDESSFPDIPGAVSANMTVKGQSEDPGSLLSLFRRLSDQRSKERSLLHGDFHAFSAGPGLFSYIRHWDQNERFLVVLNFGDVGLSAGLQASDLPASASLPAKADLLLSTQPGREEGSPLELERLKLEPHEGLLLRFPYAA


What was measured:
[1] = target: the molecule itself; experiment: native MS; LAT1 alone; sample and conditions not told in the text (Supplementary Fig. 12C)
[2] = target: T1, 4F2 cell-surface antigen heavy chain …; experiment: native MS; complex at about 4 µM in 200 mM ammonium acetate pH 7.0 with 2 mM OGNG, released from OGNG micelles, Q Exactive UHMR, positive mode; details: both partners purified
[3] = target: T2, 4F2hc, desialylated …; experiment: as above; details: both partners purified
[4] = target: the molecule itself; experiment: as above

binding result [2]	binding result [3]	Binder	stoichiometry N [1]	stoichiometry N [4]
binds	binds	L-type amino acid transporter 1 (LAT1, SLC7A5) (natural protein, phosphoserine at S35 (mono-phosphorylated proteoform, part of the population), L-type amino acid transporter 1 (LAT1, SLC7A5), human, full-length cDNA in pCAG; also called light chain; source: HEK293F, co-transfected with 4F2hc, purified (anti-Flag M2 resin, Ni-NTA, SEC) in digitonin) not shown	2	–
–	–	LAT1-4F2hc heterodimer, wild type, fully glycosylated (complex, phosphoserine at S35 (mono-phosphorylated proteoform, part of the population) | four highly branched, sialylated N-glycans at Asn365, Asn381, Asn424 and Asn506 (9 to 16 sialic acid residues); one phosphorylation site (residue not given), L-type amino acid transporter 1 (LAT1, SLC7A5), human, full-length cDNA in pCAG; 4F2 cell-surface antigen heavy chain (4F2hc, SLC3A2), human, full-length cDNA in pCAG; The two chains are joined by a disulfide bond; Two such heterodimers form the super-dimer (LAT1-4F2hc)2; also called LAT1-4F2hc complex; SLC7A5-SLC3A2; source: HEK293F, co-transfected, purified (anti-Flag M2 resin, Ni-NTA, SEC) in …) chain 1: not shown chain 2: MELQPPEASIAVVSIPRQLPGSHSEAGVQGLSAGDDSELGSHCVAQTGLELLASGDPLPSASQNAEMIETGSDCVTQAGLQLLASSDPPALASKNAEVTGTMSQDTEVDMKEVELNELEPEKQPMNAASGAAMSLAGAEKNGLVKIKVAEDEAEAAAAAKFTGLSKEELLKVAGSPGWVRTRWALLLLFWLGWLGMLAGAVVIIVRAPRCRELPAQKWWHTGALYRIGDLQAFQGHGAGNLAGLKGRLDYLSSLKVKGLVLGPIHKNQKDDVAQTDLLQIDPNFGSKEDFDSLLQSAKKKSIRVILDLTPNYRGENSWFSTQVDTVATKVKDALEFWLQAGVDGFQVRDIENLKDASSFLAEWQNITKGFSEDRLLIAGTNSSDLQQILSLLESNKDLLLTSSYLSDSGSTGEHTKSLVTQYLNATGNRWCSWSLSQARLLTSFLPAQLLRLYQLMLFTLPGTPVFSYGDEIGLDAAALPGQPMEAPVMLWDESSFPDIPGAVSANMTVKGQSEDPGSLLSLFRRLSDQRSKERSLLHGDFHAFSAGPGLFSYIRHWDQNERFLVVLNFGDVGLSAGLQASDLPASASLPAKADLLLSTQPGREEGSPLELERLKLEPHEGLLLRFPYAA	–	2
